According to publication PMC6591243, “Characterization of metal binding of bifunctional kinase/phosphatase AceK and implication in activity modulation” (Scientific Reports, 2019):
Residue numbers refer to the chain shown, from its start. Numbers in names are those of the source. Blank lines part the entries; values can stand above or below the molecule they belong to.

Key:
[1] = molecular target: T1, AceK (isocitrate dehydrogenase kinase/phosphatase) (Escherichia coli, UniProt P11071); assay: X-ray crystallography; assay type: binding; settings: allosteric site at interface of kinase and regulatory domains; complex with ADP and Mn2+; AMP not listed among crystallisation additions
T1 construct: hexahistidine-tagged, expressed in E. coli BL21 (DE3), Ni-NTA and Superdex200; 66 kDa
T1 sequence (P11071 whole entry, the tested form may be a part): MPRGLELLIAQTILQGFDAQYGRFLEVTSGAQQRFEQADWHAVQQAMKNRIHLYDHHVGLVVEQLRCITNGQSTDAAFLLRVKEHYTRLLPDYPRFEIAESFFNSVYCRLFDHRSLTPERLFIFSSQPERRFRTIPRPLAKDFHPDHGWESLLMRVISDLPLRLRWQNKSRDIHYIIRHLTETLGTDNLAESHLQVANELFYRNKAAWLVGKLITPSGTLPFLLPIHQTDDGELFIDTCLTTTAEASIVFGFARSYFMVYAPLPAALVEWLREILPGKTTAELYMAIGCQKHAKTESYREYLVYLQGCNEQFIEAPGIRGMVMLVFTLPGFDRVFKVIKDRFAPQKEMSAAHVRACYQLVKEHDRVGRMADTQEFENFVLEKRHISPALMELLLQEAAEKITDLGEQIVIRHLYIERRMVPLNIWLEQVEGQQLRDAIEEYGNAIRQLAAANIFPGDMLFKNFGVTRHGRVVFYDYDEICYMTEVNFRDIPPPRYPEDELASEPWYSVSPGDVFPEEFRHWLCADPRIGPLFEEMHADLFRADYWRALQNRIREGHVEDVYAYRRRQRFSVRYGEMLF

[2] = molecular target: T2, phospho-IDH (isocitrate dehydrogenase phosphorylated by AceK) (E. coli) (UniProt P08200)
T2 sequence (chain, phosphorylated by AceK (residue not printed)): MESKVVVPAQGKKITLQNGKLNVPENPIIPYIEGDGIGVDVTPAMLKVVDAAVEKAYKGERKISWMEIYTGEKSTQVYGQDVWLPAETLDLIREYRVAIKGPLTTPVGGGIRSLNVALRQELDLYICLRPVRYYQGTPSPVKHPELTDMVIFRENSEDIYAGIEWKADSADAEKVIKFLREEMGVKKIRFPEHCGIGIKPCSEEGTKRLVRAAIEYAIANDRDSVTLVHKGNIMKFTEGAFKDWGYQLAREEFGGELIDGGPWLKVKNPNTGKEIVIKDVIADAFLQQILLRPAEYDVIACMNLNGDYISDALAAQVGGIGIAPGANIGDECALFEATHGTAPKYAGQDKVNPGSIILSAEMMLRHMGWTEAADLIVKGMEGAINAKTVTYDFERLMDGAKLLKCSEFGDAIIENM

Molecule: Nc1ncnc2c1ncn2[C@@H]1O[C@H](COP(=O)(O)O)[C@@H](O)[C@H]1O [AMP]
X-ray crystallography [1]: a buried ADP molecule and a bound AMP at the interface of the two domains

B3: AceK D475A (enzyme)
chain: MPRGLELLIAQTILQGFDAQYGRFLEVTSGAQQRFEQADWHAVQQAMKNRIHLYDHHVGLVVEQLRCITNGQSTDAAFLLRVKEHYTRLLPDYPRFEIAESFFNSVYCRLFDHRSLTPERLFIFSSQPERRFRTIPRPLAKDFHPDHGWESLLMRVISDLPLRLRWQNKSRDIHYIIRHLTETLGTDNLAESHLQVANELFYRNKAAWLVGKLITPSGTLPFLLPIHQTDDGELFIDTCLTTTAEASIVFGFARSYFMVYAPLPAALVEWLREILPGKTTAELYMAIGCQKHAKTESYREYLVYLQGCNEQFIEAPGIRGMVMLVFTLPGFDRVFKVIKDRFAPQKEMSAAHVRACYQLVKEHDRVGRMADTQEFENFVLEKRHISPALMELLLQEAAEKITDLGEQIVIRHLYIERRMVPLNIWLEQVEGQQLRDAIEEYGNAIRQLAAANIFPGDMLFKNFGVTRHGRVVFYAYDEICYMTEVNFRDIPPPRYPEDELASEPWYSVSPGDVFPEEFRHWLCADPRIGPLFEEMHADLFRADYWRALQNRIREGHVEDVYAYRRRQRFSVRYGEMLF
Km for phospho-IDH, phosphatase kinetics (20 mM Hepes pH 7.0, 2.0 mM Mn2+, 2.0 mM ADP, 37 °C) [2]: 1.95 μM

B4: AceK D477A (enzyme)
chain: B3 chain with A475D, D477A
Km for phospho-IDH, phosphatase kinetics (20 mM Hepes pH 7.0, 2.0 mM Mn2+, 2.0 mM ADP, 37 °C) [2]: 16.1 μM

Now from value to molecule:

Km for phospho-IDH, phosphatase kinetics (20 mM Hepes pH 7.0, 2.0 mM Mn2+, 2.0 mM ADP, 37 °C) [2]: 0.376 μM
B1: isocitrate dehydrogenase kinase/phosphatase (AceK) wild-type (enzyme)
chain: B3 chain with A475D

Km for phospho-IDH, phosphatase kinetics (20 mM Hepes pH 7.0, 2.0 mM Mn2+, 2.0 mM ADP, 37 °C) [2]: 12.2 μM
B2: AceK D477K (enzyme)
chain: B3 chain with A475D, D477K
